# System: Escherichia coli TOP10
# Experiment: shrunken log2 fold change of peptide-encoding DNA abundance (4.5 h post-induction vs induction); higher = less antimicrobial activity (less host growth inhibition)
# Details: time post-induction: 4.5 h; library: site-saturation at positions 5, 18, 19, 20
# 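Note: peptides expressed intracellularly from a pBAD plasmid library in pooled LB shake-flask culture, induced with 0.3% L-arabinose, DNA abundance read by NGS, three biological replicates, DESeq2 with apeglm shrinkage.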
row,Sequence,shrunken log2 fold change
1,RRIRNRPPRLPRPRPRPNEQPRP,-0.0324
2,RRIRERPPRLPRPRPRPQGDPRP,-0.0405
3,RRIRGRPPRLPRPRPRPWQKPRP,0.09
4,RRIRFRPPRLPRPRPRPNDWPRP,-0.271
5,RRIRPRPPRLPRPRPRPNLLPRP,0.0634
6,RRIRTRPPRLPRPRPRPSIDPRP,-0.397
7,RRIRCRPPRLPRPRPRPWVRPRP,-0.0386
8,RRIRDRPPRLPRPRPRPWTPPRP,-0.0489
9,RRIRHRPPRLPRPRPRPFSPPRP,0.0457
10,RRIRMRPPRLPRPRPRPFYSPRP,-0.0137
11,RRIRGRPPRLPRPRPRPTYCPRP,0.309
12,RRIRTRPPRLPRPRPRPKIVPRP,-0.0543
13,RRIRYRPPRLPRPRPRPVYVPRP,-0.37
14,RRIRQRPPRLPRPRPRPIWHPRP,-0.204
15,RRIRGRPPRLPRPRPRPPKPPRP,0.919
16,RRIRRRPPRLPRPRPRPPCHPRP,0.761
17,RRIRARPPRLPRPRPRPVRFPRP,0.828
18,RRIRVRPPRLPRPRPRPIGAPRP,0.255
19,RRIRKRPPRLPRPRPRPRVNPRP,0.0555
20,RRIRTRPPRLPRPRPRPMMRPRP,0.933
21,RRIRNRPPRLPRPRPRPYAMPRP,0.0743
22,RRIRGRPPRLPRPRPRPRGEPRP,1.04

row,Sequence,shrunken log2 fold change
1,RRIRGRPPRLPRPRPRPMHGPRP,0.36
2,RRIRQRPPRLPRPRPRPLHFPRP,-0.0222
3,RRIRVRPPRLPRPRPRPAHYPRP,-0.113
4,RRIRKRPPRLPRPRPRPSVEPRP,0.0133
5,RRIRMRPPRLPRPRPRPSQQPRP,0.463
6,RRIRFRPPRLPRPRPRPICSPRP,-0.0437
7,RRIRWRPPRLPRPRPRPGAYPRP,0.109
8,RRIRGRPPRLPRPRPRPCKFPRP,0.125
9,RRIRDRPPRLPRPRPRPRMMPRP,0.312
10,RRIRSRPPRLPRPRPRPMGWPRP,0.358
11,RRIRIRPPRLPRPRPRPRMTPRP,0.043
12,RRIRTRPPRLPRPRPRPQYVPRP,-0.336
13,RRIRFRPPRLPRPRPRPLIHPRP,-0.891
14,RRIRDRPPRLPRPRPRPCSTPRP,0.248
15,RRIRNRPPRLPRPRPRPDAKPRP,0.162
16,RRIRIRPPRLPRPRPRPRLHPRP,-0.341
17,RRIRLRPPRLPRPRPRPMFAPRP,0.082
18,RRIRKRPPRLPRPRPRPHTAPRP,0.239
19,RRIRVRPPRLPRPRPRPHRLPRP,-0.0912
20,RRIRCRPPRLPRPRPRPDDRPRP,-0.0204
21,RRIRTRPPRLPRPRPRPRSYPRP,0.0838
22,RRIRYRPPRLPRPRPRPWHQPRP,-0.883

row,Sequence,shrunken log2 fold change
1,RRIRWRPPRLPRPRPRPYKPPRP,-0.539
2,RRIRGRPPRLPRPRPRPHDCPRP,0.0253
3,RRIRWRPPRLPRPRPRPMKVPRP,0.138
4,RRIRYRPPRLPRPRPRPENQPRP,-0.222
5,RRIRCRPPRLPRPRPRPKSKPRP,-0.338
6,RRIRFRPPRLPRPRPRPPMEPRP,-0.0751
7,RRIRYRPPRLPRPRPRPFEGPRP,-0.000989
8,RRIRTRPPRLPRPRPRPGTVPRP,0.0209
9,RRIRTRPPRLPRPRPRPGQQPRP,-0.0603
10,RRIRERPPRLPRPRPRPPCQPRP,0.0382
11,RRIRYRPPRLPRPRPRPNVVPRP,-0.274
12,RRIRARPPRLPRPRPRPYEEPRP,-0.441
13,RRIRPRPPRLPRPRPRPWCEPRP,-0.0374
14,RRIRSRPPRLPRPRPRPTPHPRP,0.308
15,RRIRDRPPRLPRPRPRPLLFPRP,0.445
16,RRIRCRPPRLPRPRPRPCVKPRP,-0.439
17,RRIRTRPPRLPRPRPRPQNVPRP,0.0194
18,RRIRIRPPRLPRPRPRPRAFPRP,-0.0671
19,RRIRDRPPRLPRPRPRPHMPPRP,0.0902
20,RRIRSRPPRLPRPRPRPCNSPRP,-0.0626
21,RRIRERPPRLPRPRPRPSVSPRP,-0.335
22,RRIRGRPPRLPRPRPRPFTPPRP,0.0836

row,Sequence,shrunken log2 fold change
1,RRIRNRPPRLPRPRPRPFTHPRP,-0.374
2,RRIRPRPPRLPRPRPRPKCNPRP,-0.125
3,RRIRGRPPRLPRPRPRPDTLPRP,0.169
4,RRIRNRPPRLPRPRPRPIDQPRP,-0.058
5,RRIRYRPPRLPRPRPRPCWSPRP,-0.768
6,RRIRIRPPRLPRPRPRPTCEPRP,-0.132
7,RRIRGRPPRLPRPRPRPQTQPRP,2.07
8,RRIRIRPPRLPRPRPRPVWKPRP,0.154
9,RRIRDRPPRLPRPRPRPDHAPRP,-0.00822
10,RRIRHRPPRLPRPRPRPEGNPRP,-0.0642
11,RRIRPRPPRLPRPRPRPDHLPRP,-0.172
12,RRIRARPPRLPRPRPRPFLAPRP,-0.122
13,RRIRDRPPRLPRPRPRPQKVPRP,-0.114
14,RRIRQRPPRLPRPRPRPEIDPRP,-0.0412
15,RRIRDRPPRLPRPRPRPVKTPRP,0.0145
16,RRIRKRPPRLPRPRPRPRQWPRP,0.263
17,RRIRFRPPRLPRPRPRPCMIPRP,-0.118
18,RRIRPRPPRLPRPRPRPFTKPRP,-0.148
19,RRIRPRPPRLPRPRPRPNKTPRP,-0.0733
20,RRIRFRPPRLPRPRPRPSPNPRP,-0.399
21,RRIRMRPPRLPRPRPRPQNAPRP,0.0821
22,RRIRCRPPRLPRPRPRPNEMPRP,-0.123

row,Sequence,shrunken log2 fold change
1,RRIRHRPPRLPRPRPRPMFPPRP,-0.281
2,RRIRRRPPRLPRPRPRPIWGPRP,0.163
3,RRIRVRPPRLPRPRPRPYAGPRP,0.0438
4,RRIRNRPPRLPRPRPRPLGTPRP,0.135
5,RRIRSRPPRLPRPRPRPGGWPRP,0.705
6,RRIRQRPPRLPRPRPRPLASPRP,0.00224
7,RRIRWRPPRLPRPRPRPCLYPRP,-0.0689
8,RRIRQRPPRLPRPRPRPIACPRP,-0.238
9,RRIRWRPPRLPRPRPRPSATPRP,0.985
10,RRIRVRPPRLPRPRPRPDIKPRP,-0.912
11,RRIRGRPPRLPRPRPRPNKNPRP,0.3
12,RRIRIRPPRLPRPRPRPPPEPRP,0.32
13,RRIRPRPPRLPRPRPRPSFHPRP,0.626
14,RRIRVRPPRLPRPRPRPVNTPRP,-0.236
15,RRIRSRPPRLPRPRPRPQKLPRP,0.0126
16,RRIRQRPPRLPRPRPRPGMVPRP,0.0259
17,RRIRTRPPRLPRPRPRPQQEPRP,0.0173
18,RRIRERPPRLPRPRPRPKIAPRP,-0.147
19,RRIRPRPPRLPRPRPRPECYPRP,0.044
20,RRIRNRPPRLPRPRPRPMFEPRP,0.29
21,RRIRHRPPRLPRPRPRPKMNPRP,-0.487

# — the supplement of paper PMC9112550, “Optimization of the antimicrobial peptide Bac7 by deep mutational scanning” (BMC Biology, 2022)
